In publication PMC12319226 (Frontiers in Bioinformatics, 2025):

T1: Neisseria meningitidis factor H binding protein variant 3.28 (Neisseria meningitidis, fHbp variant …, strain)
T1 construct: also called fHbp v3.28; fHbp variant 3.28
T1 chain: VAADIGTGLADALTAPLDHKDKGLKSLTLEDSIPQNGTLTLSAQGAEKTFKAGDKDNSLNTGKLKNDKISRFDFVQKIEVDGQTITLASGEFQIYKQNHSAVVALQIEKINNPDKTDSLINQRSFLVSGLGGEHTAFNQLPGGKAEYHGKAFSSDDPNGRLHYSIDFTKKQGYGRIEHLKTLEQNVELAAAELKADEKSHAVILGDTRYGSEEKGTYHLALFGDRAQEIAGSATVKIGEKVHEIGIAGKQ

T2: fHbp m000019 (Neisseria meningitidis, fHbp v1.1 …, point mutant)
T2 construct: also called Round 1 best mutant
T2 chain: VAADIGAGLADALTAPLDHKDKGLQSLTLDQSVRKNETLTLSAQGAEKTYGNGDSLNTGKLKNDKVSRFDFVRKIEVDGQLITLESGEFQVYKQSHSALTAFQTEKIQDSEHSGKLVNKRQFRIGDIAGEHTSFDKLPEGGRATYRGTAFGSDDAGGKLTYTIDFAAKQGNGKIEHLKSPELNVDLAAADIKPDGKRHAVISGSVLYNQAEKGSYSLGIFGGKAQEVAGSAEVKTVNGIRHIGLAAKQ

T3: fHbp m002416 (Neisseria meningitidis, fHbp v3.28/v1.1 …, point mutant)
T3 construct: also called fHbp 2,416; Round 2 best mutant
T3 chain: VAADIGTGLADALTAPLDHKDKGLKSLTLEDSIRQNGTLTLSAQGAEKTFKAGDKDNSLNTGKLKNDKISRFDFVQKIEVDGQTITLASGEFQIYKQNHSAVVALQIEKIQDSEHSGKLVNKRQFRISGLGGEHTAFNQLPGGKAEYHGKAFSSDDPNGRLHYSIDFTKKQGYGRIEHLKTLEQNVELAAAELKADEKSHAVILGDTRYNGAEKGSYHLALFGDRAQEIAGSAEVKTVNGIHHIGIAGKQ

B1: human mAb 4B3 (antibody, V domains shown)
VH: QVQLVQSGGGLVKPGGSLRLSCAASGFPFSSYYMSWIRQAPGKGLEWVSDINNSGNVKEYADFVKGRLTISRDNVKNSMYLHMNSLRVEDTAVYYCARNRGRFDVWGQGTLVTVSA
VL: EIVMTQSPGTLSLSPGETATLSCRASQMISSPFLAWYQQRRGQAPRLLIYGASTRATDTPDRFRGSGSGTDFILTISRLEPEDFAVYYCQYYDDSPFTFGQGTKLEIK
notes: source: Expi293, transient transfection, purified (MabSelect SuRe, SEC)
B2: human mAb 1E6 (antibody, V domains shown)
VH: EVQLVQSGAEVKKPGSSVKVSCKASGGTVIDYPITWVRQAPGQGLEWVGGFVPLFRTSNYGQKFQGRVTITADKSTSTASMELNSLTSEDTAIYYCARGDTAMGPFDYWGQGTLVTVSS
VL: SYVLTQPPSLSVAPGKTATLTCGGNNIAGKTVHWYQQRPGQAPVLVISYDSDRPSGIPERFSGSNSANTATLTISRVEAGDEADYYCQVWDRNSDHWVFGGGTKLTVL
notes: as for B1

Assays:
Test in all cases: BLI
Details in all cases: both partners purified
[1] = target: T1, Neisseria meningitidis factor H binding …
fHbp m000019 = target: T2, fHbp m000019
[2] = target: T4, Neisseria meningitidis factor H binding protein variant 1.1 (Neisseria meningitidis, UniProt Q9JXV4)
T4 construct: also called fHbp v1.1; fHbp variant 1.1

fHbp m002416 = target: T3, fHbp m002416

Binder	Kd [1]	Kd (fHbp m000019)	Kd [2]	Kd (fHbp m002416)
B1	5 to 6 nM	2.4 nM	1 to 5 nM	3.8 nM
B2	2 to 4 nM	0.8 nM	3 to 10 nM	0.32 nM
